Test results from US20250188151A1, “C-JUN ANTAGONIST PEPTIDES” (The University of Bath, priority 2022, published 2025).
Bridge positions count the residues as written; N and C are the ends. Ends that are not written are not given here.

How the values were obtained:
cJun bZIP [1] = biological target: cJun bZIP (Homo sapiens, UniProt P05412, S292Y); experiment: CD spectra and thermal denaturation of peptide/cJun heterodimers; settings: peptide (5 μM)/c-Jun (5 μM) heterodimer; Table 6
Procedure: Circular Dichroism (CD): An Applied Photophysics Chirascan was used for CD measurements, with a 200 μL sample in a 1 mm path length CD cell. Protein/DNA samples were suspended in 150 mM potassium phosphate, 150 mM potassium fluoride and 5 mM TCEP at pH 7.4 and were equilibrated for 30 minutes before measurement. […] These scans were averaged and converted to molar residue ellipticities (MRE). Thermal denaturation experiments were performed by measuring the ellipticity at 222 nm over a 1 to 90° C. gradient at 1° C. increments. Post-melt scans at 20° C. confirmed the transitions were reversible as they overlaid within 10% of the pre-melt scan.
Circular Dichroism (CD): An Applied Photophysics Chirascan was used for CD measurements, with a 200 μL sample in a 1 mm path length CD cell. Protein/DNA samples were suspended in 150 mM potassium phosphate, 150 mM potassium fluoride and 5 mM TCEP at pH 7.4 and were equilibrated for 30minutes before measurement. […] Thermal denaturation experiments were performed by measuring the ellipticity at 222 nm over a 1 to 90° C. gradient at 1° C. increments. Post-melt scans at 20° C. confirmed the transitions were reversible as they overlaid within 10% of the pre-melt scan.
Peptide helicity was determined by quantifying the CD signal at 222 nm of peptide only samples. Thermal denaturation experiments were then used to determine the Tm of peptide-c-Jun heterodimers, which was used as an approximate measure of target engagement. […] The same 60 amino acid c-Jun bZIP construct was used for all experiments, regardless of antagonist peptide length.

cJun = cJun (Homo sapiens, UniProt P05412, S292Y); experiment: Isothermal titration calorimetry, Example 2 (PEAQ-ITC); type: binding; set-up: The same 60 amino acid c-Jun bZIP construct was used for all experiments; His-SUMO (N, cleaved yes); made in house; host or cells: E. coli; settings: ITC
Procedure: 2 μL injections of antagonist peptide at 25-200 μM were injected into the cell containing cJun at 2.5-20 μM. Software was used to record and analyse the heat change upon addition. Control experiments involved the injection of the antagonist peptide sample into the cell containing ITC buffer alone to determine the heat of dilution which was subtracted. The resulting binding data were fit to a one site binding model to extract the enthalpy change of binding (ΔH) and the equilibrium binding constant (KD), from which the free energy change of binding (ΔG) and the entropy change of binding (ΔS) was calculated (Wiseman et al., 1989). Thermodynamic parameters are presented as an average of two independent experiments with errors given as one standard deviation.

cJun bZIP [2] = biological target: T1, cJun bZIP (human, UniProt P05412 252-308, limits assumed); experiment: cell-based or functional assay
T1 chain: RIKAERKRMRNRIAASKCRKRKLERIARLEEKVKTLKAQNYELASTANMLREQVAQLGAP

cJun bZIP [3] = biological target: T1, cJun bZIP; experiment: cell-based or functional assay
cJun bZIP [4] = biological target: T1, cJun bZIP; experiment: CD thermal denaturation, peptide 5 µM and c-Jun 5 µM
cJun bZIP [5] = biological target: T1, cJun bZIP; experiment: ITC (PEAQ-ITC), peptide injected into cJun, one site model

Ac-EAEELVVEEDVLEEEIEQLEERNYALRKEIEDLQKQLEKL-NH2 [Peptide 4]
Tm (° C.) (cJun bZIP [1]): 64.1 ± 1.5 °C
ΔG (cJun): -9.68 ± 0.115 kcal/mol
ΔH (cJun): -45.399 ± 1.93 kcal/mol
−TΔS (cJun): 35.73 ± 1.94 kcal/mol
Stoichiometry, n (cJun; c-Jun-peptide interaction): 0.91 ± 0.04

B1: HingeW peptide variant 3 (peptide)
peptide: Ac-LEKEAEELVVEEDVLEEEIEQLEERNYALRKEIEDLQKQLEKL-NH2
notes: Synthetic, NΔ17 CΔ3; also called peptide 3
fold decrease in antagonism, 2 to 3 (cJun bZIP [2]): 2 fold
IC50 CD (cJun bZIP [3]): 33.7 µM
Tm (° C.) of peptide-c-Jun heterodimer (cJun bZIP [4]): 67.9 ° C.

B2: Peptide 6 (peptide)
peptide: EDVLEEEIEQLEERNYALRKEIEDLQKQLEKLGAP-NH2
notes: NΔ28; also called LZ-only portion of the HingeW molecule
fold decrease in antagonism, 5 to 6 (cJun bZIP [2]): 1.7 fold
fold decrease in cJun/TRE DNA antagonism, 1 to 6 (cJun bZIP [2]): 9.7 fold
IC50 CD (cJun bZIP [3]): 130 µM
Tm (° C.) of peptide-c-Jun heterodimer (cJun bZIP [4]): 55.1 ° C.

B3: HingeW variant peptide 27 (peptide)
peptide: Ac-EAEELVVEEDVLEEEIEQLEEKNKALKDEIEDLY-NH2
modifications: lactam 24-28 (inferred)
notes: Synthetic, NΔ20 CΔ10; also called cyclised form of 26/27
fold reduction in antagonism relative to 1 (cJun bZIP [2]): 8.8 fold
IC50 CD (cJun bZIP [3]): 118 µM
Tm (° C.) of peptide-c-Jun heterodimer (cJun bZIP [4]): 52.5 ° C.

B4: HingeW variant peptide 10 (peptide)
peptide: Ac-LVVEEDVLEEEIEQLEERNYALRKEIEDLQKQLEDL-NH2
modifications: lactam (positions not given here); also: one i to i+4 K-to-D lactam, places not given here (K24/D28 or K31/D35)
notes: Synthetic, NΔ24 CΔ3; also called cyclised form of 9/10
fold increase in antagonism relative to 5 (cJun bZIP [2]): 1.9 fold
IC50 CD (cJun bZIP [3]): 69 µM
Tm (° C.) of peptide-c-Jun heterodimer (cJun bZIP [4]): 68.3 ° C.

B5: HingeW variant peptide 28 (peptide)
peptide: Ac-EAEELVVEEDVLEEEIEQLEERNYALRKEIEDLQ-NH2
notes: Synthetic, NΔ20 CΔ9; also called linear form of 28/29
IC50 CD (cJun bZIP [3]): 725 µM
Tm (° C.) of peptide-c-Jun heterodimer (cJun bZIP [4]): 53.8 ° C.

B6: HingeW variant peptide 8 (peptide)
peptide: Ac-LVVEEDVLEEEIEQLEEKNKALKDEIEDLQKQLEKLY-NH2
modifications: lactam 20-24 (inferred); also: table prints a different, shorter sequence for 7/8
notes: See peptide 7; also called cyclised form of 7/8
fold increase in antagonism relative to 5 (cJun bZIP [2]): 1.8 fold
IC50 CD (cJun bZIP [3]): 73.5 µM
Tm (° C.) of peptide-c-Jun heterodimer (cJun bZIP [4]): 67.2 ° C.

B7: Peptide 5 (peptide)
peptide: Ac-LVVEEDVLEEEIEQLEERNYALRKEIEDLQKQLEKL-NH2
notes: Synthetic, NΔ24 CΔ3
fold better antagonism than 6 (cJun bZIP [2]): 1.7 fold
fold decrease in antagonism, 3 to 5 (cJun bZIP [2]): 2.3 fold
fold lower antagonism than 1 (cJun bZIP [2]): 5.8 fold
fold reduction in antagonism, 4 to 5 (cJun bZIP [2]): 1.7 fold
IC50 CD (cJun bZIP [3]): 78.2 µM
Tm (° C.) of peptide-c-Jun heterodimer (cJun bZIP [4]): 62.8 ° C.

B8: HingeW variant peptide 11 (peptide)
peptide: Ac-EAEELVVEEDVLEEEIEQLEERNYALRKEIEDLQKQ-NH2
notes: Synthetic, NΔ20 CΔ7
fold reduction in antagonism, 4 to 11 (cJun bZIP [2]): 1.8 fold
IC50 CD (cJun bZIP [3]): 82.1 µM
Tm (° C.) of peptide-c-Jun heterodimer (cJun bZIP [4]): 57.1 ° C.
-TΔS (cJun bZIP [5]): -2.14 kcal/mol
Kd (cJun bZIP [5]): 1.1 µM
Stoichiometry, n (cJun bZIP [5]): 0.95
ΔG (cJun bZIP [5]): -8.15 kcal/mol
ΔH (cJun bZIP [5]): -5.99 kcal/mol

B9: HingeW peptide variant 24 (HW30) (peptide)
peptide: Ac-EAEELVVEEKVLEDEIEQLEERNYALRKEIKDLQDQ-NH2
modifications: lactam 10-14, 31-35
SMILES: CC[C@H](C)[C@H](NC(=O)[C@H](CCC(=O)O)NC(=O)[C@H](CCCCN)NC(=O)[C@H](CCCNC(=N)N)NC(=O)[C@H](CC(C)C)NC(=O)[C@H](C)NC(=O)[C@H](Cc1ccc(O)cc1)NC(=O)[C@H](CC(N)=O)NC(=O)[C@H](CCCNC(=N)N)NC(=O)[C@H](CCC(=O)O)NC(=O)[C@H](CCC(=O)O)NC(=O)[C@H](CC(C)C)NC(=O)[C@H](CCC(N)=O)NC(=O)[C@H](CCC(=O)O)NC(=O)[C@@H](NC(=O)[C@H](CCC(=O)O)NC(=O)[C@@H]1CC(=O)NCCCC[C@H](NC(=O)[C@H](CCC(=O)O)NC(=O)[C@H](CCC(=O)O)NC(=O)[C@@H](NC(=O)[C@@H](NC(=O)[C@H](CC(C)C)NC(=O)[C@H](CCC(=O)O)NC(=O)[C@H](CCC(=O)O)NC(=O)[C@H](C)NC(=O)[C@H](CCC(=O)O)NC(C)=O)C(C)C)C(C)C)C(=O)N[C@@H](C(C)C)C(=O)N[C@@H](CC(C)C)C(=O)N[C@@H](CCC(=O)O)C(=O)N1)[C@@H](C)CC)C(=O)N[C@H]1CCCCNC(=O)C[C@@H](C(=O)N[C@@H](CCC(N)=O)C(N)=O)NC(=O)[C@H](CCC(N)=O)NC(=O)[C@H](CC(C)C)NC(=O)[C@H](CC(=O)O)NC1=O
notes: Synthetic, NΔ20 CΔ7; also called double lactamised peptide
IC50 CD (cJun bZIP [3]): 44.9 µM
Tm (° C.) of peptide-c-Jun heterodimer (cJun bZIP [4]): 63.2 ° C.
-TΔS (cJun bZIP [5]): 19.6 kcal/mol
Kd (cJun bZIP [5]): 0.00969 µM
Stoichiometry, n (cJun bZIP [5]): 1.05
ΔG (cJun bZIP [5]): -10.9 kcal/mol
ΔH (cJun bZIP [5]): -30.5 kcal/mol

B10: HingeW variant peptide 25 (peptide)
peptide: Ac-EAEELVVEEDVLEEEIEQLEERNYALRKEIEDL-NH2
notes: Synthetic, NΔ20 CΔ10
fold reduction in antagonism compared to 4 (cJun bZIP [2]): 26.7 fold
fold reduction in antagonism compared to 11 (cJun bZIP [2]): 14.8 fold
IC50 CD (cJun bZIP [3]): 1210 µM
Tm (° C.) of peptide-c-Jun heterodimer (cJun bZIP [4]): 44.8 ° C.

B11: HingeW peptide variant 2 (peptide)
peptide: Ac-LARENEELEKEAEELVVEEDVLEEEIEQLEERNYALRKEIEDLQKQLEKL-NH2
notes: Synthetic, NΔ10 CΔ3; also called peptide 2
fold decrease in antagonism, 1 to 2 (cJun bZIP [2]): 1.2 fold
fold more effective antagonism than 10 (cJun bZIP [2]): 4 fold
IC50 CD (cJun bZIP [3]): 16.6 µM
Tm (° C.) of peptide-c-Jun heterodimer (cJun bZIP [4]): 68.5 ° C.

B12: HingeW variant peptide 29 (peptide)
peptide: Ac-EAEELVVEEDVLEEEIEQLEERNYALRKEIEDLQ-NH2
modifications: lactam 28-32 (inferred)
notes: Synthetic, NΔ20 CΔ9; also called cyclised form of 28/29
fold reduction in antagonism relative to 1 (cJun bZIP [2]): 10.4 fold
IC50 CD (cJun bZIP [3]): 140 µM
Tm (° C.) of peptide-c-Jun heterodimer (cJun bZIP [4]): 57.2 ° C.

B13: HingeW variant peptide 4 (peptide)
peptide: Ac-EAEELVVEEDVLEEEIEQLEERNYALRKEIEDLQKQLEKL-NH2
notes: Synthetic, NΔ20 CΔ3
IC50 CD (cJun bZIP [3]): 45.4 µM
Tm (° C.) of peptide-c-Jun heterodimer (cJun bZIP [4]): 64.1 ° C.
-TΔS (cJun bZIP [5]): 35.7 kcal/mol
Kd (cJun bZIP [5]): 0.0911 µM
Stoichiometry, n (cJun bZIP [5]): 0.91
ΔG (cJun bZIP [5]): -9.68 kcal/mol
ΔH (cJun bZIP [5]): -45.4 kcal/mol
